Patent US20100160228

Biological target: VEGFR2 (vascular endothelial growth factor receptor 2), expressed from plasmid in HEK293 cells, P35968
Sequence (P35968 20-1356): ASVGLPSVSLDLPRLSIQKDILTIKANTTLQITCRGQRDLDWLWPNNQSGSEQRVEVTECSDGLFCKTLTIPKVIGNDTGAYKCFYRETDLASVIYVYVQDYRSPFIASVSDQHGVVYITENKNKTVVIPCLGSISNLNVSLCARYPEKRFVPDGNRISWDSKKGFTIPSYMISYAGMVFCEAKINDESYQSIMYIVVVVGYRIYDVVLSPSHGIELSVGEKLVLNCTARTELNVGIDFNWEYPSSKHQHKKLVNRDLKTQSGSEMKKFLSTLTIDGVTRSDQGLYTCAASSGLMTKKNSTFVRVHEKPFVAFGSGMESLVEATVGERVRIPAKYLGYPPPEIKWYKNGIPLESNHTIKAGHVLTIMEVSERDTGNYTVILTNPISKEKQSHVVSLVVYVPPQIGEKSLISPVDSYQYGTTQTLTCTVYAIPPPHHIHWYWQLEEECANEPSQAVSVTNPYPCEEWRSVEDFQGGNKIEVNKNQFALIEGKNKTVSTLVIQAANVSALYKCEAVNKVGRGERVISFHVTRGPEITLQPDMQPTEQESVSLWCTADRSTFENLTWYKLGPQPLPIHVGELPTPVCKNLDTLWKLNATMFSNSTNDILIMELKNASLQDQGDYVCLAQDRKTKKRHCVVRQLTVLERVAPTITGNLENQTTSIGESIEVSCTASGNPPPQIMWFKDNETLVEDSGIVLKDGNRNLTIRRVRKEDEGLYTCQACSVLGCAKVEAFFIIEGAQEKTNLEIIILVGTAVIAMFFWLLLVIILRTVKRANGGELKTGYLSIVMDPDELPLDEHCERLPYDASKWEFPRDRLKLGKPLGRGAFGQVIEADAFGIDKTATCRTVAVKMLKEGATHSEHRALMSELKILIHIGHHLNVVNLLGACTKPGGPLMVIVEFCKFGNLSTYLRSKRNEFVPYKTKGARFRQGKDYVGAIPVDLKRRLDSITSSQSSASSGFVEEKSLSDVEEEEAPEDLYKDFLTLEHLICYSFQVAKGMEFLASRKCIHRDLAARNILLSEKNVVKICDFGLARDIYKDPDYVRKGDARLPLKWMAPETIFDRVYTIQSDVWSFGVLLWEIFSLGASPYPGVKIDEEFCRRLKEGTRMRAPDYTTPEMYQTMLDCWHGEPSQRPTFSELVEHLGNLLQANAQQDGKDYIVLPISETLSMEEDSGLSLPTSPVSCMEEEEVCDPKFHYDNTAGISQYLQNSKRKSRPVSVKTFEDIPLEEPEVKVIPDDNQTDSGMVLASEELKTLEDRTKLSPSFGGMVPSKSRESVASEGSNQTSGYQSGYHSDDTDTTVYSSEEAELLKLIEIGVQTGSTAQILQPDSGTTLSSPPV

B1: recombinant, purified TCPTP (T-cell protein tyrosine phosphatase) (protein)
chain: MPTTIEREFEELDTQRRWQPLYLEIRNESHDYPHRVAKFPENRNRNRYRDVSPYDHSRVKLQNAENDYINASLVDIEEAQRSYILTQGPLPNTCCHFWLMVWQQKTKAVVMLNRIVEKESVKCAQYWPTDDQEMLFKETGFSVKLLSEDVKSYYTVHLLQLENINSGETRTISHFHYTTWPDFGVPESPASFLNFLFKVRESGSLNPDHGPAVIHCSAGIGRSGTFSLVDTCLVLMEKGDDINIKQVLLNMRKYRMGLIQTPDQLRFSYMAIIEGAKCIKGDSSIQKRWKELSKEDLSPAFDHSPNKIMTEKYNGNRIGLEEEKLTGDRCTGLSSKMQDTMEENSESALRKRIREDRKATTAQKVQQMKQRLNENERKRKRPRLTDT
in vitro dephosphorylation of VEGFR2 tyrosines 996, 1175 and 1214: TCPTP showed a striking specificity to two tyrosine residues studied (Y1214 and Y996), while tyrosine 1175 was not a TCPTP target | in vitro dephosphorylation of isolated VEGFR2 (immunoblot with phospho-specific VEGFR2 antibodies): purified, recombinant TCPTP was able to dephosphorylate isolated VEGFR2 in vitro
